Experimental findings from publication PMC3413365 (The Journal of Cell Biology, 2012) are described below.

By koff is commonly meant the rate constant with which the complex falls apart. In general, Kd refers to a measure of binding affinity in units of concentration. High values mean a looser complex, low ones a tighter complex.

Sequences and labels used below:
B3: Lucifer yellow–labeled BiP substrate peptide (NH2-HTFPAVLGSC-COOH) (peptide)
peptide: H-HTFPAVLGSC-OH
modifications: also: Lucifer yellow iodoacetamide label, residue not given here

Holding throughout (assay): fluorescence polarisation
On the technique in general: In fluorescence polarisation assays a small probe gives low polarisation when free and higher when bound to something large.

Assay [1] deals with B3.
The target of assay [2] is BiP^Δ(554–654);R470E (hamster, UniProt G3I8R9 19-553, R470E).
BiP^Δ(554–654);R470E, sequence (G3I8R9 19-553 R470E): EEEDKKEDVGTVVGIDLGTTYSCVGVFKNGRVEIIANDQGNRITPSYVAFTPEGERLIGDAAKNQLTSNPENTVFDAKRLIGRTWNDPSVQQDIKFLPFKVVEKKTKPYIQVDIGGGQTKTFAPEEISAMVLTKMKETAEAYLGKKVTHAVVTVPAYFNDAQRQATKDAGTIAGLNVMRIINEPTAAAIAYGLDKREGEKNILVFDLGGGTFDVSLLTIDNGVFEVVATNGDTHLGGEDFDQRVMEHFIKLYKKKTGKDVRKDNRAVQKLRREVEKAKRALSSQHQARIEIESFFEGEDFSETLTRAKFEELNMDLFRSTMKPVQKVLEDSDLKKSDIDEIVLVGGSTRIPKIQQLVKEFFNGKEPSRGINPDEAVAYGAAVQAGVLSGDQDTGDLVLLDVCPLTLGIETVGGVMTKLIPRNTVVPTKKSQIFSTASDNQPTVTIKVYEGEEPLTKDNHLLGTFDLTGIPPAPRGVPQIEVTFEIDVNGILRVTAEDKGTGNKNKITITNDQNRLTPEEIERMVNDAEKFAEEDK
The target in assay [3] is T1, H6-tagged hamster BiP, wild type (hamster, UniProt G3I8R9 19-654).
T1 sequence (G3I8R9 19-654): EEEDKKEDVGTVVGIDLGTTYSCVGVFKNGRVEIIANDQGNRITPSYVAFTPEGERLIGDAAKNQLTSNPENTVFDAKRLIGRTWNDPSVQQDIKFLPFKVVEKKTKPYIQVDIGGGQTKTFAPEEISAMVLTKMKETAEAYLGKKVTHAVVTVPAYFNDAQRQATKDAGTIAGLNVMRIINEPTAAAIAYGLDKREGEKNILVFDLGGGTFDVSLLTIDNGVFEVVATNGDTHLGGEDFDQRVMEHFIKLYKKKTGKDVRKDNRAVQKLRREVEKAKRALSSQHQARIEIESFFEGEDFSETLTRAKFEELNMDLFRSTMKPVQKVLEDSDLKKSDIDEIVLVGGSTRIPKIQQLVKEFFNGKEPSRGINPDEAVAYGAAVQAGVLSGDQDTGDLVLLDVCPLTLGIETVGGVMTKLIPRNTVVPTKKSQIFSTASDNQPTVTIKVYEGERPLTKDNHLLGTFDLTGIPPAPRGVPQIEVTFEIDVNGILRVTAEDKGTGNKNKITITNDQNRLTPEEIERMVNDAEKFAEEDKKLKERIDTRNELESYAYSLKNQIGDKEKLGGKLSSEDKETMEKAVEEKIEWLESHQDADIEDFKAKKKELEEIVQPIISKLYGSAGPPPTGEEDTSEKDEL
Assay [4] addresses T2, BiP^R470E (hamster, UniProt G3I8R9 19-654, R470E).
The target of assay [5] is Lidless BiP (Δ554-654) (hamster, UniProt G3I8R9 19-553).
Lidless BiP (Δ554-654), sequence (G3I8R9 19-553, stated change not applied): as the sequence (G3I8R9 19-553 R470E) above, with E452R counted along it
The target of assay [6] is T1, H6-tagged hamster BiP, wild type. The source holds these as a separate data set.
Assay [7] has as its target T2, BiP^R470E. This is another data set of the same source.

T2 sequence (G3I8R9 19-654 R470E): as the sequence (G3I8R9 19-654) above, with R452E counted along it

B1: BiP^R470K (natural protein)
chain: not shown
For the molecule B1, in assay [1], the “fold change of the peptide off-rate against wild type” value came to 3 fold.

B2: BiP^R492K (natural protein)
chain: not shown
With B2, the “fold change of the peptide off-rate against wild type” value in assay [1] amounted to 3 fold.

On to B3, for which the koff in assay [2] was determined as 0.00328 s⁻¹; in assay [3], 0.0002 s⁻¹; in assay [4], 0.0074 s⁻¹; in assay [5], 0.0017 s⁻¹. For the same molecule, the dissociation constant Kd in assay [6] came out at 13 µM; in assay [7], 9 µM.
